The results in this text go back to patent publication KR20220090395A (dated 2022).

Substitutions are numbered along the chain they refer to. Read-outs that look alike come from different tables or passages of the source. Where only a bound is given, the exact number is not on record here.

In one assay the target is SARS-CoV-1 RBD (SARS-CoV-1, UniProt P59594 306-527). Put plainly: binding measurement of Fig. 20; method not given.
Assay [1] has as its target T1, SARS-CoV-2 RBD (Biotinylated SARS-CoV-2 RBD, Acrobio 시스템) (SARS-CoV-2, UniProt P0DTC2 319-537). Put plainly: BLI; IgG1 made in CHO cells. Background: Biolayer interferometry detects binding as a change in optical thickness at a sensor tip.
Assay [2] deals with T1, SARS-CoV-2 RBD (Biotinylated SARS-CoV-2 …).

The Kd is the concentration at which binding is half-saturated. Read a high Kd as a looser complex.

B1: D27LEY (IgG1 형태) (antibody, V domains shown)
VH: QVQLQQSGAEVKKPGSSVKVSCKASGGTFGNWSISWVRQAPGQGLEWMGGIAPGRGEATYAQKFQGRVTITTDESTSTAYMELSSLRSEDTAVYYCARETWYTSGGMDVWGQGTTVTVSS
VL: SYELTQPPSVSVAPGKTARITCGGNNIGRKSVHWYQQKPGQAPVLVVYDDSDRPSGIPERFSGSNSGNTATLTISRVEAGDEADYYCQVYDLWSSDYVFGTGTKVTVL
B1 showed a Kd in the assay with SARS-CoV-1 RBD of under 1 pM.

B2: D27LE (IgG1 형태) (antibody, V domains shown)
VH: B1 VH with A52D, G54S
VL: B1 VL
B2: in assay [1], the Kd stood at 7.1 nM.

B3: D27 항체 (designed full-length antibody D27) (antibody, V domains shown)
VH: QVQLQQSGAEVKKPGSSVKVSCKASGGTFGNWSISWVRQAPGQGLEWMGGIDPSRGEATYAQKFQGRVTITTDESTSTAYMELSSLRSEDTAVYYCARETEQGGMDVWGQGTTVTVSS
VL: SYELTQPPSVSVAPGKTARITCGGNNIGRKSVHWYQQKPGQAPVLVVYDDSDRPSGIPERFSGSNSGNTATLTISRVEAGDEADYYCQVYDLFSDYVFGTGTKVEIK
For the molecule B3, binding in assay [2] was characterised by a dissociation constant (Kd) of 175 nM.
